Patent US20140322162A1

Experiments:
[1] = biological target: H-ferritin binding sites (receptor) on bovine retinal endothelial cell (BREC) homogenate (bovine); assay: saturation binding of 125I-rH-ferritin to BREC homogenate, global non-linear one-site fit
[2] = biological target: H-ferritin binding sites (receptor) on rat brain microvessels (rat); assay: saturation binding of 125I-rH-ferritin to rat brain microvessels, global non-linear one-site fit

Bmax (fmol/mg protein) [1]: 466
Kd [1]: 2.7 nM
Bmax (fmol/mg protein) [2]: 573
Kd [2]: 7.9 nM
Substance: recombinant human H-ferritin (from UniProt P02794 1-183) (ligand)
